Experimental data taken from PMC9482650, “Quantitative fragmentomics allow affinity mapping of interactomes” (Nature Communications, 2022).

T1: DLG3_1, Q92796
T1 sequence (Q92796 125-227, limits assumed, looked up): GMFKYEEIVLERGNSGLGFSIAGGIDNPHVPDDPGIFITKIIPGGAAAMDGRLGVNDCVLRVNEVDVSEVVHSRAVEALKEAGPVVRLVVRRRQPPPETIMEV

T2: LNX2_2, Q8N448
T2 sequence (Q8N448 334-432, limits assumed, looked up): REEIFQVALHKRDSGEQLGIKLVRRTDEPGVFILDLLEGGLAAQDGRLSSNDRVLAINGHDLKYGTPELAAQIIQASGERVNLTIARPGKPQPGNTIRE

T3: PCLO, Q9Y6V0
T3 sequence (Q9Y6V0 4491-4600, limits assumed, looked up): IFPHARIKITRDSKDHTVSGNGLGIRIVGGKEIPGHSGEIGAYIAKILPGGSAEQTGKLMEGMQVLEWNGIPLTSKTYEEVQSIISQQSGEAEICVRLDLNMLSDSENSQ

T4: SNTG2, Q9NY99
T4 sequence (Q9NY99 68-166, limits assumed, looked up): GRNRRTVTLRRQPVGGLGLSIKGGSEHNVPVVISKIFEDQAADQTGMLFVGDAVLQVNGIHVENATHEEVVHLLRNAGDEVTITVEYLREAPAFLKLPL

T5: SNTA1, Q13424
T5 sequence (Q13424 82-180, limits assumed, looked up): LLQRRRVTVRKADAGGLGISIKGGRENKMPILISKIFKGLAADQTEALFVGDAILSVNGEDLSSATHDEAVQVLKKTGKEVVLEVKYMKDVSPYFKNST

T6: PDZRN3_1, Q9UPQ7
T6 sequence (Q9UPQ7 244-349, limits assumed, looked up): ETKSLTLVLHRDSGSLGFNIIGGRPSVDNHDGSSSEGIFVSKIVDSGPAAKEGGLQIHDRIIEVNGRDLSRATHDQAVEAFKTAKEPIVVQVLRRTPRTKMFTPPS

T7: RHPN1, Q8TCX5
T7 sequence (Q8TCX5 508-602, limits assumed, looked up): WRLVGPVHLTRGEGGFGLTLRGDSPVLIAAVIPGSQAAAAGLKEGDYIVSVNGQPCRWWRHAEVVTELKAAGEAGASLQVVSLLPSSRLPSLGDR

T8: TX1BP3, O14907
T8 sequence (O14907 10-122, limits assumed, looked up): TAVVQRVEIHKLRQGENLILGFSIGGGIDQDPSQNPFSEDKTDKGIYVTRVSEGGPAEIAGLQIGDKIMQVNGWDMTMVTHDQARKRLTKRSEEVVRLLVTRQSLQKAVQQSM

T9: FRMPD1, Q5SYB0
T9 sequence (Q5SYB0 52-145, limits assumed, looked up): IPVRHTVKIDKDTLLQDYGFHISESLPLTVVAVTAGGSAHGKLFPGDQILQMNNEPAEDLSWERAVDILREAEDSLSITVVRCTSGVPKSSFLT

T10: MPP2, Q14168
T10 sequence (Q14168 180-250, limits assumed, looked up): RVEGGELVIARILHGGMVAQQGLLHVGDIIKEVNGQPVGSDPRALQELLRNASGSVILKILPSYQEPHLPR

T11: LIN7B, Q9HAP6
T11 sequence (Q9HAP6 88-185, limits assumed, looked up): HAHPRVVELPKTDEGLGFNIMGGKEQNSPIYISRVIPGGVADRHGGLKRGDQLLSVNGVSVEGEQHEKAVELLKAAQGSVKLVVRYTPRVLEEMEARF


These binders were tested against Inadl_8, Q8NI35 (assay: holdup assay). Conditions: plain residues with an end cap or a label only (N-terminal biotin on a linker: ado-ado).
Chain of Inadl_8, Q8NI35 (Q8NI35 1425-1530): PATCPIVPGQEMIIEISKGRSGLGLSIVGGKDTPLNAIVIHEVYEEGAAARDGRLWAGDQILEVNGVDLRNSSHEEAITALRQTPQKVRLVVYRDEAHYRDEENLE
Parameters: key: below the threshold = too weak to quantify, mostly under pKd 3.1 to 4
PKLMGVETVV [DUSP10, Q9Y6W6] gave a pKd of 3.5.
QLAEIAESGL [ITK, Q08881] was tested, and the pKd was 3.52.

Each binder was assayed against PARD3_3, Q8TEW0 (assay: holdup assay). Conditions: plain residues with an end cap or a label only (N-terminal biotin on a linker: ado-ado).
Chain of PARD3_3, Q8TEW0 (Q8TEW0 582-685): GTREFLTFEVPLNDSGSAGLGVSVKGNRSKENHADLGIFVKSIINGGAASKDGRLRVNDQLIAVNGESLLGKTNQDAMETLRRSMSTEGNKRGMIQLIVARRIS
Parameters: key: below the threshold = too weak to quantify, mostly under pKd 3.1 to 4
PKLMGVETVV [DUSP10, Q9Y6W6] was tested, and the pKd was 3.75.
In the case of QLAEIAESGL [ITK, Q08881], the pKd is reported as “below the threshold”.

What follows are binders tested against T1, DLG3_1, Q92796 (assay: holdup assay). Conditions: plain residues with an end cap or a label only (N-terminal biotin on a linker: ado-ado).
Parameters: key: below the threshold = too weak to quantify, mostly under pKd 3.1 to 4
Binder PKLMGVETVV [DUSP10, Q9Y6W6] has a pKd of 4.63.
Work on QLAEIAESGL [ITK, Q08881] yielded a pKd of 3.56.

The binders below were run against GRIP2_3, Q9C0E4 (assay: holdup assay). Conditions: plain residues with an end cap or a label only (N-terminal biotin on a linker: ado-ado).
Chain of GRIP2_3, Q9C0E4 (Q9C0E4 238-339): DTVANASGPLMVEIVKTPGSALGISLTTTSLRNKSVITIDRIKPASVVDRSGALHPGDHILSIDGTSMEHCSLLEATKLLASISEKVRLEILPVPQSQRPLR
Parameters: key: below the threshold = too weak to quantify, mostly under pKd 3.1 to 4
PKLMGVETVV [DUSP10, Q9Y6W6] was tested, and the pKd was “below the threshold”.
Binder QLAEIAESGL [ITK, Q08881] has a pKd of 3.53.

These binders were tested against LIMK2, P53671 (assay: holdup assay). Conditions: plain residues with an end cap or a label only (N-terminal biotin on a linker: ado-ado).
Chain of LIMK2, P53671 (P53671 143-248): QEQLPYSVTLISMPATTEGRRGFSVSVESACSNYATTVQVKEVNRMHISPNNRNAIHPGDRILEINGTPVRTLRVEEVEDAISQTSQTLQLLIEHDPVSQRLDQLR
Parameters: key: below the threshold = too weak to quantify, mostly under pKd 3.1 to 4
For PKLMGVETVV [DUSP10, Q9Y6W6], the pKd was “below the threshold”.
QLAEIAESGL [ITK, Q08881] was tested, and the pKd was “below the threshold”.

Each binder was assayed against T2, LNX2_2, Q8N448 (assay: holdup assay). Conditions: plain residues with an end cap or a label only (N-terminal biotin on a linker: ado-ado).
Parameters: key: below the threshold = too weak to quantify, mostly under pKd 3.1 to 4
In the case of PKLMGVETVV [DUSP10, Q9Y6W6], the pKd is reported as 5.21.
For QLAEIAESGL [ITK, Q08881], the pKd was “below the threshold”.

What follows are binders tested against IL16_1, Q14005 (assay: holdup assay). Conditions: plain residues with an end cap or a label only (N-terminal biotin on a linker: ado-ado).
Chain of IL16_1, Q14005 (Q14005 210-306): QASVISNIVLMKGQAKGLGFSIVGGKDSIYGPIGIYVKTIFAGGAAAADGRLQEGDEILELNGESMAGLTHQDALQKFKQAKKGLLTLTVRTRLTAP
Parameters: key: below the threshold = too weak to quantify, mostly under pKd 3.1 to 4
In the case of PKLMGVETVV [DUSP10, Q9Y6W6], the pKd is reported as 4.38.
QLAEIAESGL [ITK, Q08881] showed a pKd of 3.48.

What follows are binders tested against PDLIM1, O00151 (assay: holdup assay). Conditions: plain residues with an end cap or a label only (N-terminal biotin on a linker: ado-ado).
Chain of PDLIM1, O00151 (O00151 1-87): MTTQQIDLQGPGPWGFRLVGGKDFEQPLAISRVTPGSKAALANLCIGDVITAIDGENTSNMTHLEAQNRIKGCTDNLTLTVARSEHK
Parameters: key: below the threshold = too weak to quantify, mostly under pKd 3.1 to 4
For PKLMGVETVV [DUSP10, Q9Y6W6], the pKd was “below the threshold”.
With QLAEIAESGL [ITK, Q08881] the pKd was 3.56.

These binders were tested against HTRA1, Q92743 (assay: holdup assay). Conditions: plain residues with an end cap or a label only (N-terminal biotin on a linker: ado-ado).
Chain of HTRA1, Q92743 (Q92743 360-477): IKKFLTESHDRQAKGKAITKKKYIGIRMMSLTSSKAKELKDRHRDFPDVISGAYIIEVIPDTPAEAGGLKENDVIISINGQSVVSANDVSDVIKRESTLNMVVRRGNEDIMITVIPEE
Parameters: key: below the threshold = too weak to quantify, mostly under pKd 3.1 to 4
With PKLMGVETVV [DUSP10, Q9Y6W6] the pKd was 4.6.
In the case of QLAEIAESGL [ITK, Q08881], the pKd is reported as “below the threshold”.

Each binder was assayed against DLG4_2, P78352 (assay: holdup assay). Conditions: plain residues with an end cap or a label only (N-terminal biotin on a linker: ado-ado).
Chain of DLG4_2, P78352 (P78352 155-259): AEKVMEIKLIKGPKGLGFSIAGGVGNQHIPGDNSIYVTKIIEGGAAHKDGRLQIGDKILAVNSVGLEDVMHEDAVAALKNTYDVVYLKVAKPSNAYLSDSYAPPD
Parameters: key: below the threshold = too weak to quantify, mostly under pKd 3.1 to 4
PKLMGVETVV [DUSP10, Q9Y6W6] gave a pKd of 5.47.
Work on QLAEIAESGL [ITK, Q08881] yielded a pKd of 3.79.

What follows are binders tested against DLG4_3, P78352 (assay: holdup assay). Conditions: plain residues with an end cap or a label only (N-terminal biotin on a linker: ado-ado).
Chain of DLG4_3, P78352 (P78352 306-403): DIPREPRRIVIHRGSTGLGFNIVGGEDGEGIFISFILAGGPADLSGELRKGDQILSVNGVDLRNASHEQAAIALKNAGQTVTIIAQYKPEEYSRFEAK
Parameters: key: below the threshold = too weak to quantify, mostly under pKd 3.1 to 4
With PKLMGVETVV [DUSP10, Q9Y6W6] the pKd was 4.01.
For QLAEIAESGL [ITK, Q08881], the pKd was 3.62.

What follows are binders tested against HTRA2, O43464 (assay: holdup assay). Conditions: plain residues with an end cap or a label only (N-terminal biotin on a linker: ado-ado).
Chain of HTRA2, O43464 (O43464 355-458): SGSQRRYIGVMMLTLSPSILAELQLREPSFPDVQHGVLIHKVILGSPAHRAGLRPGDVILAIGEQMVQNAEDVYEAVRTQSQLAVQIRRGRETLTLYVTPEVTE
Parameters: key: below the threshold = too weak to quantify, mostly under pKd 3.1 to 4
PKLMGVETVV [DUSP10, Q9Y6W6] was tested, and the pKd was “below the threshold”.
QLAEIAESGL [ITK, Q08881] was tested, and the pKd was “below the threshold”.

Each binder was assayed against T3, PCLO, Q9Y6V0 (assay: holdup assay). Conditions: plain residues with an end cap or a label only (N-terminal biotin on a linker: ado-ado).
Parameters: key: below the threshold = too weak to quantify, mostly under pKd 3.1 to 4
With PKLMGVETVV [DUSP10, Q9Y6W6] the pKd was “below the threshold”.
For QLAEIAESGL [ITK, Q08881], the pKd was “below the threshold”.

The binders below were run against SNX27, Q96L92 (assay: holdup assay). Conditions: plain residues with an end cap or a label only (N-terminal biotin on a linker: ado-ado).
Parameters: key: below the threshold = too weak to quantify, mostly under pKd 3.1 to 4
Work on PKLMGVETVV [DUSP10, Q9Y6W6] yielded a pKd of 5.23.
QLAEIAESGL [ITK, Q08881] showed a pKd of 5.4.

The binders below were run against NHERF4_1, Q86UT5-2 (assay: holdup assay). Conditions: plain residues with an end cap or a label only (N-terminal biotin on a linker: ado-ado).
Chain of NHERF4_1, Q86UT5-2 (Q86UT5 other isoform, or with tags, fused parts or gaps): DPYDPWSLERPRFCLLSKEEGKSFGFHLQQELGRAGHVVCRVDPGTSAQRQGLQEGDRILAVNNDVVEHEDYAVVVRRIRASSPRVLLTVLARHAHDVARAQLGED
Parameters: key: below the threshold = too weak to quantify, mostly under pKd 3.1 to 4
In the case of PKLMGVETVV [DUSP10, Q9Y6W6], the pKd is reported as “below the threshold”.
Work on QLAEIAESGL [ITK, Q08881] yielded a pKd of 3.91.

These binders were tested against T4, SNTG2, Q9NY99 (assay: holdup assay). Conditions: plain residues with an end cap or a label only (N-terminal biotin on a linker: ado-ado).
Parameters: key: below the threshold = too weak to quantify, mostly under pKd 3.1 to 4
PKLMGVETVV [DUSP10, Q9Y6W6] gave a pKd of 4.51.
In the case of QLAEIAESGL [ITK, Q08881], the pKd is reported as 3.82.

What follows are binders tested against T5, SNTA1, Q13424 (assay: holdup assay). Conditions: plain residues with an end cap or a label only (N-terminal biotin on a linker: ado-ado).
Parameters: key: below the threshold = too weak to quantify, mostly under pKd 3.1 to 4
With PKLMGVETVV [DUSP10, Q9Y6W6] the pKd was 5.13.
With QLAEIAESGL [ITK, Q08881] the pKd was 3.63.

The binders below were run against IL16_4, Q14005 (assay: holdup assay). Conditions: plain residues with an end cap or a label only (N-terminal biotin on a linker: ado-ado).
Chain of IL16_4, Q14005 (Q14005 1229-1329): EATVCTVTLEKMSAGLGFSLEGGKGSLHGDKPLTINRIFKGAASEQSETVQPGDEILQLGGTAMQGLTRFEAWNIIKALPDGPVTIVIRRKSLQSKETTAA
Parameters: key: below the threshold = too weak to quantify, mostly under pKd 3.1 to 4
In the case of PKLMGVETVV [DUSP10, Q9Y6W6], the pKd is reported as “below the threshold”.
With QLAEIAESGL [ITK, Q08881] the pKd was 3.8.

What follows are binders tested against T6, PDZRN3_1, Q9UPQ7 (assay: holdup assay). Conditions: plain residues with an end cap or a label only (N-terminal biotin on a linker: ado-ado).
Parameters: key: below the threshold = too weak to quantify, mostly under pKd 3.1 to 4
In the case of PKLMGVETVV [DUSP10, Q9Y6W6], the pKd is reported as 3.69.
For QLAEIAESGL [ITK, Q08881], the pKd was 3.89.

What follows are binders tested against FRMPD2_1, Q68DX3 (assay: holdup assay). Conditions: plain residues with an end cap or a label only (N-terminal biotin on a linker: ado-ado).
Chain of FRMPD2_1, Q68DX3 (Q68DX3 770-861): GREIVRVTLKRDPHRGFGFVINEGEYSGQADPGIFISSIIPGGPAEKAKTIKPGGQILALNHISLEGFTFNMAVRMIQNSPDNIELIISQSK
Parameters: key: below the threshold = too weak to quantify, mostly under pKd 3.1 to 4
PKLMGVETVV [DUSP10, Q9Y6W6] was tested, and the pKd was “below the threshold”.
In the case of QLAEIAESGL [ITK, Q08881], the pKd is reported as “below the threshold”.

What follows are binders tested against IL16_3, Q14005 (assay: holdup assay). Conditions: plain residues with an end cap or a label only (N-terminal biotin on a linker: ado-ado).
Chain of IL16_3, Q14005 (Q14005 1107-1207): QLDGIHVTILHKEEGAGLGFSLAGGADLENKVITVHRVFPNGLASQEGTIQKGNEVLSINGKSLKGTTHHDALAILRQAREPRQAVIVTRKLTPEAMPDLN
Parameters: key: below the threshold = too weak to quantify, mostly under pKd 3.1 to 4
With PKLMGVETVV [DUSP10, Q9Y6W6] the pKd was “below the threshold”.
QLAEIAESGL [ITK, Q08881] showed a pKd of 3.74.

The binders below were run against T7, RHPN1, Q8TCX5 (assay: holdup assay). Conditions: plain residues with an end cap or a label only (N-terminal biotin on a linker: ado-ado).
Parameters: key: below the threshold = too weak to quantify, mostly under pKd 3.1 to 4
Work on PKLMGVETVV [DUSP10, Q9Y6W6] yielded a pKd of 4.42.
QLAEIAESGL [ITK, Q08881] showed a pKd of 3.83.

What follows are binders tested against T8, TX1BP3, O14907 (assay: holdup assay). Conditions: plain residues with an end cap or a label only (N-terminal biotin on a linker: ado-ado).
Parameters: key: below the threshold = too weak to quantify, mostly under pKd 3.1 to 4
PKLMGVETVV [DUSP10, Q9Y6W6] gave a pKd of 4.15.
QLAEIAESGL [ITK, Q08881] was tested, and the pKd was “below the threshold”.

These binders were tested against T9, FRMPD1, Q5SYB0 (assay: holdup assay). Conditions: plain residues with an end cap or a label only (N-terminal biotin on a linker: ado-ado).
Parameters: key: below the threshold = too weak to quantify, mostly under pKd 3.1 to 4
With PKLMGVETVV [DUSP10, Q9Y6W6] the pKd was “below the threshold”.
In the case of QLAEIAESGL [ITK, Q08881], the pKd is reported as “below the threshold”.

What follows are binders tested against T10, MPP2, Q14168 (assay: holdup assay). Conditions: plain residues with an end cap or a label only (N-terminal biotin on a linker: ado-ado).
Parameters: key: below the threshold = too weak to quantify, mostly under pKd 3.1 to 4
In the case of PKLMGVETVV [DUSP10, Q9Y6W6], the pKd is reported as “below the threshold”.
In the case of QLAEIAESGL [ITK, Q08881], the pKd is reported as “below the threshold”.

What follows are binders tested against T11, LIN7B, Q9HAP6 (assay: holdup assay). Conditions: plain residues with an end cap or a label only (N-terminal biotin on a linker: ado-ado).
Parameters: key: below the threshold = too weak to quantify, mostly under pKd 3.1 to 4
In the case of PKLMGVETVV [DUSP10, Q9Y6W6], the pKd is reported as “below the threshold”.
For QLAEIAESGL [ITK, Q08881], the pKd was “below the threshold”.

Each binder was assayed against Inadl_4, Q8NI35 (assay: holdup assay). Conditions: plain residues with an end cap or a label only (N-terminal biotin on a linker: ado-ado).
Chain of Inadl_4, Q8NI35 (Q8NI35 547-651): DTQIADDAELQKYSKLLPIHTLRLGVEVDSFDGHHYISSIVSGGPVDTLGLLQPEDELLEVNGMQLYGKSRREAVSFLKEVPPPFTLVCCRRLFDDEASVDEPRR
Parameters: key: below the threshold = too weak to quantify, mostly under pKd 3.1 to 4
With PKLMGVETVV [DUSP10, Q9Y6W6] the pKd was “below the threshold”.
In the case of QLAEIAESGL [ITK, Q08881], the pKd is reported as “below the threshold”.
